Molecular target: the molecule itself
Assay: transmission electron microscopy

Row | Protein | binding result
1 | encapsulin from Thermotoga maritima (TmEnc) nanocage (natural protein) MEFLKRSFAPLTEKQWQEIDNRAREIFKTQLYGRKFVDVEGPYGWEYAAHPLGEVEVLSDENEVVKWGLRKSLPLIELRATFTLDLWELDNLERGKPNVDLSSLEETVRKVAEFEDEVIFRGCEKSGVKGLLSFEERKIECGSTPKDLLEAIVRALSIFSKDGIEGPYTLVINTDRWINFLKEEAGHYPLEKRVEECLRGGKIITTPRIEDALVVSERGGDFKLILGQDLSIGYEDREKDAVRLFITETFTFQVVNPEALILLKF | binds
2 | Cy7-labelled TmEnc (TmEnc^Cy7) nanocage (natural protein, Thermotoga maritima, sulfo-Cy7 conjugated to lysine residues on the outer surface (~50 dye molecules per nanocage)) MEFLKRSFAPLTEKQWQEIDNRAREIFKTQLYGRKFVDVEGPYGWEYAAHPLGEVEVLSDENEVVKWGLRKSLPLIELRATFTLDLWELDNLERGKPNVDLSSLEETVRKVAEFEDEVIFRGCEKSGVKGLLSFEERKIECGSTPKDLLEAIVRALSIFSKDGIEGPYTLVINTDRWINFLKEEAGHYPLEKRVEECLRGGKIITTPRIEDALVVSERGGDFKLILGQDLSIGYEDREKDAVRLFITETFTFQVVNPEALILLKF | binds
